Source: patent US20220135656A1 (NIMA ACQUISITION, published 2022)
“And” between values parts separate entries of the source, which are not always exact repeats. Equal values may be shown once. Ends that are not written are not given here. * marks the point of attachment. Biotin = O=C1N[C@H]2[C@H](CS[C@H]2CCCCC(=O)*)N1

T1: peptide 43 (QQQQQQQQQQ)
T1 peptide: Biotin-QQQQQQQQQQ

T2: peptide PQQPYPQPQP (SEQ ID NO: 50)
T2 construct: Crude 10-mer of the peptide library from antigen 1/2/3; also called group A peptide
T2 peptide: Biotin-PQQPYPQPQP

T3: peptide PQPQLPYPQP (SEQ ID NO: 51)
T3 construct: Crude 10-mer of the peptide library; also called group A peptide
T3 peptide: Biotin-PQPQLPYPQP

T4: peptide QLPYPQPQLP (SEQ ID NO: 52)
T4 construct: Crude 10-mer of the peptide library; also called group A peptide
T4 peptide: Biotin-QLPYPQPQLP

T5: peptide PQLPYPQPQP (SEQ ID NO: 53)
T5 construct: Crude 10-mer of the peptide library; also called group A peptide
T5 peptide: Biotin-PQLPYPQPQP

T6: peptide PPQQPYPQPQ (SEQ ID NO: 54)
T6 construct: Crude 10-mer of the peptide library; also called group A peptide
T6 peptide: Biotin-PPQQPYPQPQ

T7: peptide SPQQPYPQPQ (SEQ ID NO: 55)
T7 construct: Crude 10-mer of the peptide library; also called group A peptide
T7 peptide: Biotin-SPQQPYPQPQ

T8: peptide QPQLPYPQPQ (SEQ ID NO: 56)
T8 construct: Crude 10-mer of the peptide library; also called group A peptide
T8 peptide: Biotin-QPQLPYPQPQ

T9: peptide PQLPYPQPQL (SEQ ID NO: 57)
T9 construct: Crude 10-mer of the peptide library; also called group A peptide
T9 peptide: Biotin-PQLPYPQPQL

T10: peptide PQQPYPQSQP (SEQ ID NO: 58)
T10 construct: Crude 10-mer of the peptide library; also called group A peptide
T10 peptide: Biotin-PQQPYPQSQP

T11: peptide PPQLPYPQPP (SEQ ID NO: 59)
T11 construct: Crude 10-mer of the peptide library; also called group A peptide
T11 peptide: Biotin-PPQLPYPQPP

T12: peptide PFPPQQPYPQ (SEQ ID NO: 60)
T12 construct: Crude 10-mer of the peptide library; also called group B peptide
T12 peptide: Biotin-PFPPQQPYPQ

T13: peptide YPQPQLPYPQ (SEQ ID NO: 61)
T13 construct: Crude 10-mer of the peptide library; also called group B peptide
T13 peptide: Biotin-YPQPQLPYPQ

T14: peptide PFRPQQPYPQ (SEQ ID NO: 62)
T14 construct: Crude 10-mer of the peptide library; also called group B peptide
T14 peptide: Biotin-PFRPQQPYPQ


How the values were obtained:
peptide 43 (QQQQQQQQQQ) = target: T1, peptide 43 (QQQQQQQQQQ); test: peptide ELISA, biotinylated peptide captured on streptavidin
PWG-gliadin [1] = target: T15, PWG-gliadin (wheat); test: SPR (Biacore T200), gliadin amine-coupled, antibody as analyte; 'as shown in the examples'
T15 construct: also called Gluten; glutenin

[2] = target: T2, peptide PQQPYPQPQP (SEQ ID NO: 50); test: peptide ELISA; biotinylated crude peptide on streptavidin, mAb 0.5 µg/ml; value given for group A
[3] = target: T3, peptide PQPQLPYPQP (SEQ ID NO: 51); test: as above
[4] = target: T4, peptide QLPYPQPQLP (SEQ ID NO: 52); test: as above
[5] = target: T5, peptide PQLPYPQPQP (SEQ ID NO: 53); test: as above
[6] = target: T6, peptide PPQQPYPQPQ (SEQ ID NO: 54); test: as above
[7] = target: T7, peptide SPQQPYPQPQ (SEQ ID NO: 55); test: as above
[8] = target: T8, peptide QPQLPYPQPQ (SEQ ID NO: 56); test: as above
[9] = target: T9, peptide PQLPYPQPQL (SEQ ID NO: 57); test: as above
[10] = target: T10, peptide PQQPYPQSQP (SEQ ID NO: 58); test: as above
[11] = target: T11, peptide PPQLPYPQPP (SEQ ID NO: 59); test: as above
[12] = target: T12, peptide PFPPQQPYPQ (SEQ ID NO: 60); test: peptide ELISA; biotinylated crude peptide on streptavidin, mAb 0.5 µg/ml; value given for group B
[13] = target: T13, peptide YPQPQLPYPQ (SEQ ID NO: 61); test: as above
[14] = target: T14, peptide PFRPQQPYPQ (SEQ ID NO: 62); test: as above
PWG-gliadin [15] = target: T15, PWG-gliadin; test: SPR, Biacore T200; Glutenin amine-coupled to the chip, antibody as analyte 3-243 nM; 1:1 binding fit; Chi2 16 RU2, U-value 2
Procedure: (§1) In this experiment, glutenin protein was coated through amine coupling method, the antibodies were flowed over the sensor chip as analytes. The experiment was carried out using the following protocol.
(§2) Coat glutenin onto the Series S Sensor Chip CM5 via primary amine groups using the following conditions: [0123] (1) Equilibrate: HBS-EP, flow rate 10 μl/min, 5 min; [0124] […] (3) Couple ligand: inject glutenin (15 μg/ml, 10 mM sodium acetate, pH 4.5), flow rate 10 μl/min, until ˜300 RU of glutenin is coated; [0126] (4) Deactivate excess reactive groups: inject ethanolamine, flow rate 10 μl/min, 7 min.
(§3) In this study, the binding affinities between glutenin and three monoclonal antibodies were determined. The experiment was carried out where glutenin was amine coupled to the sensor chip and antibodies were used as analytes. The result of is with good curve fitting and low U-values, and thus is reliable.

[16] = target: T12, peptide PFPPQQPYPQ (SEQ ID NO: 60); test: peptide ELISA; group B; the number is missing in the cell
[17] = target: T13, peptide YPQPQLPYPQ (SEQ ID NO: 61); test: as above
[18] = target: T14, peptide PFRPQQPYPQ (SEQ ID NO: 62); test: as above
PWG-gliadin [19] = target: T15, PWG-gliadin; test: SPR, Biacore T200; Glutenin amine-coupled to the chip, antibody as analyte 3-243 nM; 1:1 binding fit; Chi2 29.9 RU2, U-value 2
Procedure: as §1, §2, §3

| Binder | binding result (peptide 43 (QQQQQQQQQQ)) | Kd (PWG-gliadin [1]) | OD450nm [2] | OD450nm [3] | OD450nm [4] | OD450nm [5] | OD450nm [6] | OD450nm [7] | OD450nm [8] | OD450nm [9] | OD450nm [10] | OD450nm [11] | other results |
| --- | --- | --- | --- | --- | --- | --- | --- | --- | --- | --- | --- | --- | --- |
| 14G11 monoclonal antibody (antibody, IgG1, V domains shown, also called 14G11 monoclonal Ab) VH: QIQLVQSGPEMKKPGETVKIFCKASGYTLTDYSMHWVKQAPGKGLKWMGWINTETGEPTYADDFKGRCAFSLETSVSTAFLQINNLKNEDMGTYFCASSGAWFSYWGQGTLVTVSA VL: DVLLTQTPLSLPVSLGDQASISCRSSQTIVQINGNTHLEWFLQKPGQSPKLLIYKVSNRFSGVPDRFSGSGSGTDFTLKISRVEAEDLGIYYCFQGSHVPFTFGSGTKLEIK | no binding | < 50 nM and ~30 nM | ~1 | ~1 | ~1 | ~1 | ~1 | ~1 | ~1 | ~1 | ~1 | ~1 | OD450nm [12]: < 0.5; OD450nm [13]: < 0.5; OD450nm [14]: < 0.5; Kd (PWG-gliadin [15]): 30.6 nM; koff (PWG-gliadin [15]): 0.00225 s⁻¹; kon (PWG-gliadin [15]): 73600 M⁻¹ s⁻¹ |
| 13F6 monoclonal antibody (antibody, IgG2b, V domains shown, also called 13F6 monoclonal Ab) VH: QIQLVQSGPELKKPGETVKISCKASGYTFTDYSMHWVRQAPGKGLKWMGWINTETGEPTYADDFKGRFAFSLETSASTAYLQINNLKNEDTATHFCAPSVAWFAYWGQGTLVTVST VL: DVLMTQTPLSLSVSLGDQASISCRSSQSIVQSNGNTHLEWFLQKPGQSPKLLIYKVSNRFSGVPDRFSGSGSGTDFTLKISRVEAEDLGVYYCFQGSHVPFTFGSGTKLEIK | no binding | < 10 nM and 5 nM to 6 nM (2×) | ~2 | ~2 | ~2 | ~2 | ~2 | ~2 | ~2 | ~2 | ~2 | ~2 | binding result [16]: binds; binding result [17]: binds; binding result [18]: binds; Kd (PWG-gliadin [19]): 5.81 nM; koff (PWG-gliadin [19]): 0.000663 s⁻¹; kon (PWG-gliadin [19]): 114000 M⁻¹ s⁻¹ |
